Assay results taken from patent US20230265151A1, “GIP/GLP1 CO-AGONIST COMPOUNDS” (priority 2020, published 2023).
Positions count from the first letter of the chain named.

B1: Y-Aib-EGT-αMeF(2F)-TSD-4Pal-SI-αMeL-LD-Orn-K((2-[2-(2-Amino-ethoxy)-ethoxy]-acetyl)2-(γ-Glu)-CO-(CH2)12-CO2H)AQ-Aib-EFI-(D-Glu)-αMeY-LIEGGK((2-[2-(2-Amino-ethox … (peptide)
peptide: YXEGTXTSDXSIXLDXKAQXEFIXXLIEGGKSSGAPPPS
modifications: Aib2, αMeF(2F)6, 4Pal10, αMeL13, Orn16, Aib20, D-Glu24, αMeY25; acylated K17, K31 (groups as in name); C-terminal amide
B2: Y-Aib-EGT-αMeF(2F)-TSD-4Pal-SI-αMeL-LD-Orn-K((2-[2-(2-Amino-ethoxy)-ethoxy]-acetyl)2-(γ-Glu)-CO-(CH2)10-CO2H)AQ-Aib-EFI-(D-Glu)-αMeY-LIEGGK((2-[2-(2-Amino-ethox … (peptide)
peptide: B1 peptide
modifications: Aib2, αMeF(2F)6, 4Pal10, αMeL13, Orn16, Aib20, D-Glu24, αMeY25; acylated K17, K31 (groups as in name); C-terminal amide
B3: Y-Aib-EGT-αMeF(2F)-TSD-4Pal-SI-αMeL-LD-Orn-K((2-[2-(2-Amino-ethoxy)-ethoxy]-acetyl)2-(γ-Glu)-(10-(4-carboxyphenoxy)decanoyl))AQ-Aib-EFI-(D-Glu)-αMeY-LIEGGK((2-[ … (peptide)
peptide: B1 peptide
modifications: Aib2, αMeF(2F)6, 4Pal10, αMeL13, Orn16, Aib20, D-Glu24, αMeY25; acylated K17, K31 (groups as in name); C-terminal amide
B4: Y-Aib-EGT-αMeF(2F)-TSD-4Pal-SI-αMeL-LD-Orn-K((2-[2-(2-Amino-ethoxy)-ethoxy]-acetyl)2-(γ-Glu)-(4-(4-iodophenyl)butanoyl))AQ-Aib-EFI-(D-Glu)-αMeY-LIEGGK((2-[2-(2- … (peptide)
peptide: B1 peptide
modifications: Aib2, αMeF(2F)6, 4Pal10, αMeL13, Orn16, Aib20, D-Glu24, αMeY25; acylated K17, K31 (groups as in name); C-terminal amide
B5: Y-Aib-EGT-αMeF(2F)-TSD-4Pal-SI-αMeL-LD-Orn-K((2-[2-(2-Amino-ethoxy)-ethoxy]-acetyl)2-(γ-Glu)-(4-(4-tert-butylphenyl)butanoyl))AQ-Aib-EFI-(D-Glu)-αMeY-LIEGGK((2- … (peptide)
peptide: B1 peptide
modifications: Aib2, αMeF(2F)6, 4Pal10, αMeL13, Orn16, Aib20, D-Glu24, αMeY25; acylated K17, K31 (groups as in name); C-terminal amide
B6: Y-Aib-EGT-αMeF(2F)-TSD-4Pal-SI-αMeL-LD-Orn-K((2-[2-(2-Amino-ethoxy)-ethoxy]-acetyl)2-(γ-Glu)-CO-(CH2)14-CH3)AQ-Aib-EFI-(D-Glu)-αMeY-LIEGGK((2-[2-(2-Amino-ethoxy … (peptide)
peptide: B1 peptide
modifications: Aib2, αMeF(2F)6, 4Pal10, αMeL13, Orn16, Aib20, D-Glu24, αMeY25; acylated K17, K31 (groups as in name); C-terminal amide
B7: Y-Aib-EGT-αMeF(2F)-TSD-4Pal-SI-αMeL-LD-Orn-K((2-[2-(2-Amino-ethoxy)-ethoxy]-acetyl)2-(γ-Glu)-CO-(CH2)12-CH3)AQ-Aib-EFI-(D-Glu)-αMeY-LIEGGK((2-[2-(2-Amino-ethoxy … (peptide)
peptide: B1 peptide
modifications: Aib2, αMeF(2F)6, 4Pal10, αMeL13, Orn16, Aib20, D-Glu24, αMeY25; acylated K17, K31 (groups as in name); C-terminal amide
B8: Y-Aib-EGT-αMeF(2F)-TSD-4Pal-SI-αMeL-LD-Orn-K((2-[2-(2-Amino-ethoxy)-ethoxy]-acetyl)2-(γ-Glu)-CO-(CH2)10-CH3)AQ-Aib-EFI-(D-Glu)-αMeY-LIEGGK((2-[2-(2-Amino-ethoxy … (peptide)
peptide: B1 peptide
modifications: Aib2, αMeF(2F)6, 4Pal10, αMeL13, Orn16, Aib20, D-Glu24, αMeY25; acylated K17, K31 (groups as in name); C-terminal amide
B9: Y-Aib-EGT-αMeF(2F)-TSD-4Pal-SI-αMeL-LD-Orn-K((2-[2-(2-Amino-ethoxy)-ethoxy]-acetyl)2-CO-(CH2)12-CO2H)AQ-Aib-EFI-(D-Glu)-αMeY-LIEGGK((2-[2-(2-Amino-ethoxy)-ethox … (peptide)
peptide: B1 peptide
modifications: Aib2, αMeF(2F)6, 4Pal10, αMeL13, Orn16, Aib20, D-Glu24, αMeY25; acylated K17, K31 (groups as in name); C-terminal amide
B10: Y-Aib-EGT-αMeF(2F)-TSD-4Pal-SI-αMeL-LD-Orn-K((2-[2-(2-Amino-ethoxy)-ethoxy]-acetyl)2-(10-(4-carboxyphenoxy)decanoyl))AQ-Aib-EFI-(D-Glu)-αMeY-LIEGGK((2-[2-(2-Ami … (peptide)
peptide: B1 peptide
modifications: Aib2, αMeF(2F)6, 4Pal10, αMeL13, Orn16, Aib20, D-Glu24, αMeY25; acylated K17, K31 (groups as in name); C-terminal amide
B11: Y-Aib-EGT-αMeF(2F)-TSD-4Pal-SI-αMeL-LD-Orn-K((2-[2-(2-Amino-ethoxy)-ethoxy]-acetyl)-(γ-Glu)-CO-(CH2)12-CO2H)AQ-Aib-EFI-(D-Glu)-αMeY-LIEGGK((2-[2-(2-Amino-ethoxy … (peptide)
peptide: B1 peptide
modifications: Aib2, αMeF(2F)6, 4Pal10, αMeL13, Orn16, Aib20, D-Glu24, αMeY25; acylated K17, K31 (groups as in name); C-terminal amide
B12: Y-Aib-EGT-αMeF(2F)-TSD-4Pal-SI-αMeL-LD-Orn-K((2-[2-(2-Amino-ethoxy)-ethoxy]-acetyl)-(γ-Glu)-(10-(4-carboxyphenoxy)decanoyl))AQ-Aib-EFI-(D-Glu)-αMeY-LIEGGK((2-[2 … (peptide)
peptide: B1 peptide
modifications: Aib2, αMeF(2F)6, 4Pal10, αMeL13, Orn16, Aib20, D-Glu24, αMeY25; acylated K17, K31 (groups as in name); C-terminal amide
B13: Y-Aib-EGT-αMeF(2F)-TSD-4Pal-SI-αMeL-LD-Orn-K((2-[2-(2-Amino-ethoxy)-ethoxy]-acetyl)-(γ-Glu)-CO-(CH2)14-CH3)AQ-Aib-EFI-(D-Glu)-αMeY-LIEGGK((2-[2-(2-Amino-ethoxy) … (peptide)
peptide: B1 peptide
modifications: Aib2, αMeF(2F)6, 4Pal10, αMeL13, Orn16, Aib20, D-Glu24, αMeY25; acylated K17, K31 (groups as in name); C-terminal amide
B14: Y-Aib-EGT-αMeF(2F)-TSD-4Pal-SI-αMeL-LD-Orn-K((2-[2-(2-Amino-ethoxy)-ethoxy]-acetyl)-(γ-Glu)-CO-(CH2)10-CH3)AQ-Aib-EFI-(D-Glu)-αMeY-LIEGGK((2-[2-(2-Amino-ethoxy) … (peptide)
peptide: B1 peptide
modifications: Aib2, αMeF(2F)6, 4Pal10, αMeL13, Orn16, Aib20, D-Glu24, αMeY25; acylated K17, K31 (groups as in name); C-terminal amide
B15: Y-Aib-EGT-αMeF(2F)-TSD-4Pal-SI-αMeL-LD-Orn-K((2-[2-(2-Amino-ethoxy)-ethoxy]-acetyl)2-(γ-Glu)-CO-(CH2)12-CO2H)AQ-Aib-K((2-[2-(2-Amino-ethoxy)-ethoxy]-acetyl)2-(γ … (peptide)
peptide: B1 peptide with E21K, K31P
modifications: Aib2, αMeF(2F)6, 4Pal10, αMeL13, Orn16, Aib20, D-Glu24, αMeY25; acylated K17, K21 (groups as in name); C-terminal amide
B16: Y-Aib-EGT-αMeF(2F)-TSD-4Pal-SI-αMeL-LD-Orn-K((2-[2-(2-Amino-ethoxy)-ethoxy]-acetyl)2-(γ-Glu)-CO-(CH2)12-CO2H)AQ-Aib-EFIK((2-[2-(2-Amino-ethoxy)-ethoxy]-acetyl)2 … (peptide)
peptide: B1 peptide with X24K, K31P
modifications: Aib2, αMeF(2F)6, 4Pal10, αMeL13, Orn16, Aib20, αMeY25; acylated K17, K24 (groups as in name); C-terminal amide
B17: Y-Aib-EGT-αMeF(2F)-TSD-4Pal-SI-αMeL-LD-Orn-K((2-[2-(2-Amino-ethoxy)-ethoxy]-acetyl)2-(γ-Glu)-CO-(CH2)12-CO2H)AQ-Aib-EFI-(D-Glu)-αMeY-LIK((2-[2-(2-Amino-ethoxy)- … (peptide)
peptide: B1 peptide with E28K, K31P
modifications: Aib2, αMeF(2F)6, 4Pal10, αMeL13, Orn16, Aib20, D-Glu24, αMeY25; acylated K17, K28 (groups as in name); C-terminal amide
B18: Y-Aib-EGT-αMeF(2F)-TSD-4Pal-SI-αMeL-LD-Orn-K((2-[2-(2-Amino-ethoxy)-ethoxy]-acetyl)2-(γ-Glu)-CO-(CH2)12-CO2H)AQ-Aib-EFI-(D-Glu)-αMeY-LIEGGP S SGAPPP … (peptide)
peptide: YXEGTXTSDXSIXLDXKAQXEFIXXLIEGGPSSGAPPPSK
modifications: Aib2, αMeF(2F)6, 4Pal10, αMeL13, Orn16, Aib20, D-Glu24, αMeY25; acylated K17, K40 (groups as in name); C-terminal amide
B19: Y-Aib-EGT-αMeF(2F)-TSD-4Pal-SI-αMeL-LD-Orn-K((2-[2-(2-Amino-ethoxy)-ethoxy]-acetyl)2-(γ-Glu)-CO-(CH2)14-CH3)AQ-Aib-K((2-[2-(2-Amino-ethoxy)-ethoxy]-acetyl)2-(γ- … (peptide)
peptide: B1 peptide with E21K, K31P
modifications: Aib2, αMeF(2F)6, 4Pal10, αMeL13, Orn16, Aib20, D-Glu24, αMeY25; acylated K17, K21 (groups as in name); C-terminal amide
B20: Y-Aib-EGT-αMeF(2F)-TSD-4Pal-SI-αMeL-LD-Orn-K((2-[2-(2-Amino-ethoxy)-ethoxy]-acetyl)2-(γ-Glu)-CO-(CH2)14-CH3)AQ-Aib-EFIK((2-[2-(2-Amino-ethoxy)-ethoxy]-acetyl)2- … (peptide)
peptide: B1 peptide with X24K, K31P
modifications: Aib2, αMeF(2F)6, 4Pal10, αMeL13, Orn16, Aib20, αMeY25; acylated K17, K24 (groups as in name); C-terminal amide
B21: Y-Aib-EGT-αMeF(2F)-TSD-4Pal-SI-αMeL-LD-Orn-K((2-[2-(2-Amino-ethoxy)-ethoxy]-acetyl)2-(γ-Glu)-CO-(CH2)14-CH3)AQ-Aib-EFI-(D-Glu)-αMeY-LIK((2-[2-(2-Amino-ethoxy)-e … (peptide)
peptide: B1 peptide with E28K, K31P
modifications: Aib2, αMeF(2F)6, 4Pal10, αMeL13, Orn16, Aib20, D-Glu24, αMeY25; acylated K17, K28 (groups as in name); C-terminal amide
B22: Y-Aib-EGT-αMeF(2F)-TSD-4Pal-SI-αMeL-LD-Orn-K((2-[2-(2-Amino-ethoxy)-ethoxy]-acetyl)2-(γ-Glu)-CO-(CH2)14-CH3)AQ-Aib-EFI-(D-Glu)-αMeY-LIEGGPSSGAPPPSK((2-[2-(2-Ami … (peptide)
peptide: B18 peptide
modifications: Aib2, αMeF(2F)6, 4Pal10, αMeL13, Orn16, Aib20, D-Glu24, αMeY25; acylated K17, K40 (groups as in name); C-terminal amide
B23: Y-Aib-EGT-αMeF(2F)-TSDK((2-[2-(2-Amino-ethoxy)-ethoxy]-acetyl)2-(γ-Glu)-CO-(CH2)12-CO2H)SI-αMeL-LD-Orn-K((2-[2-(2-Amino-ethoxy)-ethoxy]-acetyl)2-(γ-Glu)-CO-(CH2 … (peptide)
peptide: B1 peptide with X10K, K31P
modifications: Aib2, αMeF(2F)6, αMeL13, Orn16, Aib20, D-Glu24, αMeY25; acylated K10, K17 (groups as in name); C-terminal amide

Biological target: human glucagon receptor (human, UniProt P47871 26-477)
Test: cell-based or functional assay

| Binder | cAMP EC50 (1.0% HSA) |
| --- | --- |
| B1 | > 9.95 µM |
| B2 | > 9.95 µM |
| B3 | > 9.95 µM |
| B4 | > 9.95 µM |
| B5 | > 9.95 µM |
| B6 | > 9.95 µM |
| B7 | > 9.95 µM |
| B8 | > 9.95 µM |
| B9 | > 9.95 µM |
| B10 | > 9.95 µM |
| B11 | > 9.95 µM |
| B12 | > 9.95 µM |
| B13 | > 9.95 µM |
| B14 | > 9.95 µM |
| B15 | > 9.95 µM |
| B16 | > 9.95 µM |
| B17 | > 9.95 µM |
| B18 | > 9.95 µM |
| B19 | > 9.95 µM |
| B20 | > 9.95 µM |
| B21 | > 9.95 µM |
| B22 | > 9.95 µM |
| B23 | > 9.95 µM |
